In patent US20100260668A1 (published 2010) one finds EC50 data, which are given here for five molecules.

One may read the EC50 as the concentration needed to bring the measured effect to its halfway point. The low end stands for higher potency in that assay, the high end for lower potency in that assay.

One assay concerns the target T1, VEGF 1-165 aa (UniProt P15692 27-191).
T1 construct: Bought antigen coated on the ELISA plate
The assay can be described thus: direct bind ELISA (C-term VD). For orientation: An ELISA detects its analyte on a solid surface through an enzyme-linked reagent.

The target of the next assay is T2, HGF-His tag (UniProt P14210 32-728).
T2 construct: Bought antigen coated on the ELISA plate; not shown: His tag
T2 sequence (P14210 32-728 limits assumed): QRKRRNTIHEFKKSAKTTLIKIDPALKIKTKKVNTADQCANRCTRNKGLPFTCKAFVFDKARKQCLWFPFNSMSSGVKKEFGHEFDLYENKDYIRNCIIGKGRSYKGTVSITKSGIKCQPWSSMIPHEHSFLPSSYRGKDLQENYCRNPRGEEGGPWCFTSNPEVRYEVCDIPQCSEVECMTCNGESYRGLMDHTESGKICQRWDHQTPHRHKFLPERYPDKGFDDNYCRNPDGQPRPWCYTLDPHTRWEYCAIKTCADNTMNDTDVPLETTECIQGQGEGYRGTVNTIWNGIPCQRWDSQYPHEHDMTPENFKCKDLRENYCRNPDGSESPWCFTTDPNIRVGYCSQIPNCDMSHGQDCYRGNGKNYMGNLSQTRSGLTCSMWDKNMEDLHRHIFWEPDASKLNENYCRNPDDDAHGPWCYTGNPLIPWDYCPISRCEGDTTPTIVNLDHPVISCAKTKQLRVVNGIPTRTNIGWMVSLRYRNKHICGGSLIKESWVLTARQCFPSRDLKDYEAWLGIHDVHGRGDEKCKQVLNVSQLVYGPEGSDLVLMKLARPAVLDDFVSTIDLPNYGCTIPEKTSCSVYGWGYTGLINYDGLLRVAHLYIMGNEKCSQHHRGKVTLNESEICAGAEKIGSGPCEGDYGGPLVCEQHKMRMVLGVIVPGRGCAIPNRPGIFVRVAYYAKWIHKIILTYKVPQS
The assay can be described thus: direct bind ELISA (N-term VD).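 Note: ELISA screen of antibodies for binding to plate-immobilized target antigen.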

T1 sequence (P15692 other isoform, or with tags, fused parts or gaps limits assumed): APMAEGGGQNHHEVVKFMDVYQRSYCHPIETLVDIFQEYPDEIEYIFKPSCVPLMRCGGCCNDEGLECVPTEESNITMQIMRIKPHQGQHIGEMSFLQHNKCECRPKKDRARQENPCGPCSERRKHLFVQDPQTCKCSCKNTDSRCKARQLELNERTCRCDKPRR
Description for HGF-His tag: (§1) Enzyme Linked Immunosorbent Assays to screen for antibodies that bind a desired target antigen were performed as follows. […] Plates were washed four times with PBS containing 0.02% Tween 20. Plates were blocked by the addition of 300 μL/well blocking solution (non-fat dry milk powder, various retail suppliers, diluted to 2% in PBS) for ½ hour at room temperature. Plates were washed four times after blocking with PBS containing 0.02% Tween 20.
(§2) Alternatively, one hundred microliters per well of 10 μg/ml of Histidine (His) tagged desired target antigen (R&D Systems, Minneapolis, Minn.) was added to ELISA plates coated with monoclonal mouse anti-polyHistidine antibody as described above and incubated for 1 hour at room temperature. Wells were washed four times with PBS containing 0.02% Tween 20.
(§3) Plates were washed 4 times with PBS containing 0.02% Tween 20.
Description for VEGF 1-165 aa: as §1, §2, §3

B1: DVD675 (bispecific antibody, human IgG1, kappa)
heavy: not shown
light: DIQMTQSPSSLSASVGDRVTITCKASENVVSYVSWYQQKPGKAPKLLIYGASNRNTGVPSRFSGSGSGTDFTLTISSLQPEDFATYYCGQSYNYPYTFGQGTKLEIKRTVAAPDIQMTQSPSSLSASVGDRVTITCRASQVIRRSLAWYQQKPGKAPKLLIYAASNLASGVPSRFSGSGSGTDFTLTISSLQPEDFATYYCQQSNTSPLTFGQGTKVEIKRTVAAPSVFIFPPSDEQLKSGTASVVCLLNNFYPREAKVQWKVDNALQSGNSQESVTEQDSKDSTYSLSSTLTLSKADYEKHKVYACEVTHQGLSSPVTKSFNRGEC
notes: DVD-Ig; N-term VD AB079 (HGF), C-term VD AB071 (VEGF); HC linker long, LC linker short; vectors V1/V2
Take B1: the values for the concentration for a half-maximal effect (EC50) with VEGF 1-165 aa and with HGF-His tag were 5770 nM and 0.48 nM, respectively.

B2: DVD679 (bispecific antibody, human IgG1, kappa)
heavy: not shown
light: DIQMTQSPSSLSASVGDRVTITCKASENVVSYVSWYQQKPGKAPKLLIYGASNRNTGVPSRFSGSGSGTDFTLTISSLQPEDFATYYCGQSYNYPYTFGQGTKLEIKRTVAAPSVFIFPPDIQMTQSPSSLSASVGDRVTITCRASQDVSTAVAWYQQKPGKAPKLLIYSASFLYSGVPSRFSGSGSGTDFTLTISSLQPEDFATYYCQQSYTTPPTFGQGTKVEIKRTVAAPSVFIFPPSDEQLKSGTASVVCLLNNFYPREAKVQWKVDNALQSGNSQESVTEQDSKDSTYSLSSTLTLSKADYEKHKVYACEVTHQGLSSPVTKSFNRGEC
notes: DVD-Ig; HC linker short, LC linker long; vectors V1/V2
With B2, the EC50 amounted to 92.4 nM with VEGF 1-165 aa and 0.32 nM with HGF-His tag.

B3: DVD681 (bispecific antibody, human IgG1, kappa)
heavy: not shown
light: DIQMTQSPSSLSASVGDRVTITCKASENVVSYVSWYQQKPGKAPKLLIYGASNRNTGVPSRFSGSGSGTDFTLTISSLQPEDFATYYCGQSYNYPYTFGQGTKLEIKRTVAAPSVFIFPPDIQMTQSPSSLSASVGDRVTITCRASQVIRRSLAWYQQKPGKAPKLLIYAASNLASGVPSRFSGSGSGTDFTLTISSLQPEDFATYYCQQSNTSPLTFGQGTKVEIKRTVAAPSVFIFPPSDEQLKSGTASVVCLLNNFYPREAKVQWKVDNALQSGNSQESVTEQDSKDSTYSLSSTLTLSKADYEKHKVYACEVTHQGLSSPVTKSFNRGEC
notes: DVD-Ig; N-term VD AB079 (HGF), C-term VD AB071 (VEGF); HC linker short, LC linker long; vectors V1/V2
Turning to B3, the EC50 with VEGF 1-165 aa worked out at 2160 nM; with HGF-His tag it was 0.27 nM.

B4: DVD711 (bispecific antibody, human IgG1, kappa)
heavy: not shown
light: DIQMTQSPSSVSASVGDRVTITCRASQGISSWLAWYQQKPGKAPNLLIYEASSLQSGVPSRFGGSGSGTDFTLTISSLQPEDFATYYCQQANGFPWTFGQGTKVEIKRTVAAPDIQMTQSPSSLSASVGDRVTITCRASQVIRRSLAWYQQKPGKAPKLLIYAASNLASGVPSRFSGSGSGTDFTLTISSLQPEDFATYYCQQSNTSPLTFGQGTKVEIKRTVAAPSVFIFPPSDEQLKSGTASVVCLLNNFYPREAKVQWKVDNALQSGNSQESVTEQDSKDSTYSLSSTLTLSKADYEKHKVYACEVTHQGLSSPVTKSFNRGEC
notes: DVD-Ig; N-term VD AB012 (HGF), C-term VD AB071 (VEGF); HC linker short, LC linker short; vectors V1/V2
B4: the concentration for a half-maximal effect (EC50) with VEGF 1-165 aa turned out to be 166 nM; in the assay with HGF-His tag it was 1.32 nM.

B5: DVD709 (bispecific antibody, human IgG1, kappa)
heavy: not shown
light: DIQMTQSPSSVSASVGDRVTITCRASQGISSWLAWYQQKPGKAPNLLIYEASSLQSGVPSRFGGSGSGTDFTLTISSLQPEDFATYYCQQANGFPWTFGQGTKVEIKRTVAAPDIQMTQSPSSLSASVGDRVTITCRASQDVSTAVAWYQQKPGKAPKLLIYSASFLYSGVPSRFSGSGSGTDFTLTISSLQPEDFATYYCQQSYTTPPTFGQGTKVEIKRTVAAPSVFIFPPSDEQLKSGTASVVCLLNNFYPREAKVQWKVDNALQSGNSQESVTEQDSKDSTYSLSSTLTLSKADYEKHKVYACEVTHQGLSSPVTKSFNRGEC
notes: DVD-Ig; HC linker short, LC linker short; vectors V1/V2
Take B5: the EC50 with VEGF 1-165 aa came out at 1370 nM; in the assay with HGF-His tag, 0.14 nM.
